In publication PMC4772074 (Biochemistry, 2015):

Biological target: the molecule itself
Assay: SEC-MALS

B1: E. coli CheA (enzyme)
chain: MSMDISDFYQTFFDEADELLADMEQHLLVLQPEAPDAEQLNAIFRAAHSIKGGAGTFGFSVLQETTHLMENLLDEARRGEMQLNTDIINLFLETKDIMQEQLDAYKQSQEPDAASFDYICQALRQLALEAKGETPSAVTRLSVVAKSEPQDEQSRSQSPRRIILSRLKAGEVDLLEEELGHLTTLTDVVKGADSLSAILPGDIAEDDITAVLCFVIEADQITFETVEVSPKISTPPVLKLAAEQAPTGRVEREKTTRSNESTSIRVAVEKVDQLINLVGELVITQSMLAQRSSELDPVNHGDLITSMGQLQRNARDLQESVMSIRMMPMEYVFSRYPRLVRDLAGKLGKQVELTLVGSSTELDKSLIERIIDPLTHLVRNSLDHGIELPEKRLAAGKNSVGNLILSAEHQGGNICIEVTDDGAGLNRERILAKAASQGLTVSENMSDDEVAMLIFAPGFSTAEQVTDVSGRGVGMDVVKRNIQKMGGHVEIQSKQGTGTTIRILLPLTLAILDGMSVRVADEVFILPLNAVMESLQPREADLHPLAGGERVLEVRGEYLPIVELWKVFNVAGAKTEATQGIVVILQSGGRRYALLVDQLIGQHQVVVKNLESNYRKVPGISAATILGDGSVALIVDVSALQAINREQRMANTAA
  stoichiometry N: 2
